Assay results published in patent publication US20210179706A1.
Where “and” joins values, the source holds several entries; their conditions need not be identical. Equal entries are not always repeated. Where two headings read alike, the source gives them in different places.

Columns and labels:
[1] = molecular target: human IL-1β-His-Bio (human) (UniProt P01584); experiment: ELISA, IL-1β-His-Bio captured on streptavidin; antibody 0.333 µg/mL diluted 1:3
[2] = molecular target: human IL-1β-hFc (human) (UniProt P01584); experiment: competition ELISA on coated IL-1β-hFc, competitor IL-1R1(1-332)-his (anti-His-HRP read-out); antibody 0.037 µg/mL
[3] = molecular target: human IL-1β-hFc (human) (UniProt P01584); experiment: competition ELISA on coated IL-1β-hFc, competitor IL-1R1(1-332)-his (anti-His-HRP read-out); antibody 0.001 µg/mL
[4] = molecular target: human IL-1β-hFc (human) (UniProt P01584); experiment: as above; remark: listed apart in the source
[5] = molecular target: human IL-1β-His-Bio (human) (UniProt P01584); experiment: ELISA, IL-1β-His-Bio captured on streptavidin; antibody 0.333 µg/mL diluted 1:27
[6] = molecular target: human IL-1β-hFc (human) (UniProt P01584); experiment: competition ELISA on coated IL-1β-hFc, competitor IL-1R1(1-332)-his; 4-parameter fit
[7] = molecular target: human IL-1β-His-Bio (human) (UniProt P01584); experiment: ELISA, IL-1β-His-Bio captured on streptavidin; antibody 0.012 µg/mL
[8] = molecular target: human IL-1β-His-Bio (human) (UniProt P01584); experiment: ELISA, IL-1β-His-Bio captured on streptavidin; 4-parameter fit
[9] = molecular target: human IL-1β-hFc (human) (UniProt P01584); experiment: competition ELISA on coated IL-1β-hFc, competitor IL-1R1(1-332)-his (anti-His-HRP read-out); antibody 0.111 µg/mL
[10] = molecular target: human IL-1β-hFc (human) (UniProt P01584); experiment: competition ELISA on coated IL-1β-hFc, competitor IL-1R1(1-332)-his (anti-His-HRP read-out); antibody 0.004 µg/mL
[11] = molecular target: human IL-1β-hFc (human) (UniProt P01584); experiment: competition ELISA on coated IL-1β-hFc, competitor IL-1R1(1-332)-his (anti-His-HRP read-out); antibody 1.000 µg/mL
[12] = molecular target: human IL-1β-hFc (human) (UniProt P01584); experiment: competition ELISA on coated IL-1β-hFc, competitor IL-1R1(1-332)-his (anti-His-HRP read-out); antibody 0.012 µg/mL
[13] = molecular target: human IL-1β-hFc (human) (UniProt P01584); experiment: competition ELISA on coated IL-1β-hFc, competitor IL-1R1(1-332)-his (anti-His-HRP read-out); antibody 0.037 µg/mL; remark: listed apart in the source
[14] = molecular target: human IL-1β-his (human) (UniProt P01584); experiment: SPR (Biacore), antibody amine-coupled on CM5, IL-1β 1.56-25 nM as analyte
[15] = molecular target: human IL-1β-hFc (human) (UniProt P01584); experiment: competition ELISA on coated IL-1β-hFc, competitor IL-1R1(1-332)-his (anti-His-HRP read-out); antibody 1.000 µg/mL; remark: listed apart in the source
[16] = molecular target: human IL-1β-hFc (human) (UniProt P01584); experiment: competition ELISA on coated IL-1β-hFc, competitor IL-1R1(1-332)-his (anti-His-HRP read-out); antibody 0.004 µg/mL; remark: listed apart in the source
[17] = molecular target: human IL-1β-His-Bio (human) (UniProt P01584); experiment: ELISA, IL-1β-His-Bio captured on streptavidin; antibody 0.333 µg/mL diluted 1:729
[18] = molecular target: human IL-1β-hFc (human) (UniProt P01584); experiment: competition ELISA on coated IL-1β-hFc, competitor IL-1R1(1-332)-his (anti-His-HRP read-out); antibody 0.012 µg/mL; remark: listed apart in the source
[19] = molecular target: human IL-1β-hFc (human) (UniProt P01584); experiment: competition ELISA on coated IL-1β-hFc, competitor IL-1R1(1-332)-his; 4-parameter fit; remark: listed apart in the source
[20] = molecular target: human IL-1β-His-Bio (human) (UniProt P01584); experiment: ELISA, IL-1β-His-Bio captured on streptavidin; antibody 0.037 µg/mL
[21] = molecular target: human IL-1β-His-Bio (human) (UniProt P01584); experiment: ELISA, IL-1β-His-Bio captured on streptavidin; antibody 0.004 µg/mL
[22] = molecular target: human IL-1β-His-Bio (human) (UniProt P01584); experiment: ELISA, IL-1β-His-Bio captured on streptavidin; antibody 0.111 µg/mL
[23] = molecular target: human IL-1β-His-Bio (human) (UniProt P01584); experiment: ELISA, IL-1β-His-Bio captured on streptavidin; antibody 0.333 µg/mL diluted 1:9
[24] = molecular target: human IL-1β-His-Bio (human) (UniProt P01584); experiment: ELISA, IL-1β-His-Bio captured on streptavidin; antibody 0.333 µg/mL diluted 1:243
[25] = molecular target: human IL-1β-His-Bio (human) (UniProt P01584); experiment: ELISA, IL-1β-His-Bio captured on streptavidin; antibody 0.001 µg/mL
[26] = molecular target: human IL-1β-His-Bio (human) (UniProt P01584); experiment: ELISA, IL-1β-His-Bio captured on streptavidin; antibody 0.333 µg/mL
[27] = molecular target: human IL-1β-hFc (human) (UniProt P01584); experiment: competition ELISA on coated IL-1β-hFc, competitor IL-1R1(1-332)-his (anti-His-HRP read-out); antibody 0.333 µg/mL
[28] = molecular target: human IL-1β-His-Bio (human) (UniProt P01584); experiment: ELISA, IL-1β-His-Bio captured on streptavidin; antibody 0.333 µg/mL; remark: listed apart in the source
[29] = molecular target: human IL-1β-hFc (human) (UniProt P01584); experiment: competition ELISA on coated IL-1β-hFc, competitor IL-1R1(1-332)-his (anti-His-HRP read-out); antibody 0.333 µg/mL; remark: listed apart in the source
[30] = molecular target: human IL-1β-hFc (human) (UniProt P01584); experiment: competition ELISA on coated IL-1β-hFc, competitor IL-1R1(1-332)-his (anti-His-HRP read-out); antibody 0.111 µg/mL; remark: listed apart in the source
[31] = molecular target: human IL-1β-His-Bio (human) (UniProt P01584); experiment: ELISA, IL-1β-His-Bio captured on streptavidin; antibody 1 µg/mL
[32] = molecular target: human IL-1β-His-Bio (human) (UniProt P01584); experiment: ELISA, IL-1β-His-Bio captured on streptavidin; 4-parameter fit; remark: listed apart in the source
[33] = molecular target: human IL-1β-His-Bio (human) (UniProt P01584); experiment: ELISA, IL-1β-His-Bio captured on streptavidin; antibody 0.333 µg/mL diluted 1:81

Question: Which results are given for “canakinumab (trade name Ilaris) (antibody)”?
Answer: OD (450 nm) [1]: 2.68 OD450 and 2.88 OD450; OD (450 nm) of blocking assay [2]: 0.736 OD450 and 0.705 OD450; OD (450 nm) of blocking assay [3]: 0.577 OD450 and 0.72 OD450; OD (450 nm) of blocking assay [4]: 0.738 OD450 and 0.559 OD450; OD (450 nm) [5]: 1.7 OD450 and 1.96 OD450; EC50 [6]: 0.26 nM; OD (450 nm) [7]: 2.06 OD450 and 2.12 OD450; EC50 [8]: 0.039 nM; OD (450 nm) of blocking assay [9]: 0.091 OD450 and 0.092 OD450; OD (450 nm) of blocking assay [10]: 0.765 OD450 and 0.735 OD450; OD (450 nm) of blocking assay [11]: 0.093 OD450 and 0.088 OD450; OD (450 nm) of blocking assay [12]: 0.572 OD450 and 0.579 OD450; OD (450 nm) of blocking assay [13]: 0.366 OD450 and 0.379 OD450; Kd [14]: 0.0979 nM; OD (450 nm) of blocking assay [15]: 0.053 OD450 and 0.052 OD450; OD (450 nm) of blocking assay [16]: 0.727 OD450 and 0.684 OD450; OD (450 nm) [17]: 0.315 OD450; OD (450 nm) of blocking assay [18]: 0.797 OD450 and 0.706 OD450; EC50 [19]: 0.961 nM; OD (450 nm) [20]: 2.64 OD450 and 2.68 OD450; OD (450 nm) [21]: 1.26 OD450 and 1.2 OD450; OD (450 nm) [22]: 2.9 OD450 and 2.89 OD450; OD (450 nm) [23]: 2.46 OD450 and 2.61 OD450; OD (450 nm) [24]: 0.408 OD450 and 0.573 OD450; OD (450 nm) [25]: 0.581 OD450 and 0.559 OD450; OD (450 nm) [26]: 2.81 OD450 and 2.94 OD450; OD (450 nm) of blocking assay [27]: 0.059 OD450 and 0.057 OD450; OD (450 nm) [28]: 2.9 OD450 and 2.88 OD450; OD (450 nm) of blocking assay [29]: 0.104 OD450 and 0.126 OD450; OD (450 nm) of blocking assay [30]: 0.519 OD450 and 0.526 OD450; OD (450 nm) [31]: 2.87 OD450; EC50 [32]: 0.057 nM; OD (450 nm) [33]: 0.852 OD450 and 1.11 OD450
